This note sets out measurements from the RNAGym collection of RNA variant scans (doi:10.7554/elife.80360).

Sequences and labels used below:
B1: HDV Ribozyme (parent)
chain: GGCCGGCAUGGUCCCAGCCUCCUCGCUGGCGCCGGCUGGGCAACAUUCCGAGGGGACCGUCCCCUCGGUAAUGGCGAAUGGGACCCA

In this data set the parent is B1. The data set can be described thus: self-cleavage, relative activity (ratio to wild type); higher = more cleavage; co-transcriptional.
As to GGCCGGCAUGGUCCCAGCCUCCUCGCUGGCGCCGGCUGGGCAACAUUCCGAGGGGACCGUCCUCUCGGUAAUGGCUAAUGGGACCCA, the self-cleavage is 1.15.
As to GGCCGGCAUGGUCCCAGCCUCCUCGCUGGCGCCGGUUGCGCAACAUUCCGAGGGGACCGUCCCCUCGGUAAUGGCGAAUGGGACCCA, the self-cleavage is 0.119.
With GGCCGACAUGGUCCCAGCCUCCUCGCUGGCGCCGGCUGGGCAACAUUCCGAGGGGACCGUCCCCUCGGUAAUGGCGAAUGGGCCCCA the figure was 0.291; with GGCCGGCAUGGUCCCAGCGUCCUCGCUGGCGCCGGCUGGUCAACAUUCCGAGGGGACCGUCCCCUCGGUAAUGGCGAAUGGGACCCA, 0.0997; with GGCCGGCAUGGUCCCAGCCUCCUAGAUGGCGCCGGCUGGGCAACAUUCCGAGGGGACCGUCCCCUCGGUAAUGGCGAAUGGGACCCA, 0.743.
On to GGCCGGCAUGGUCCCAGCCUCCUCGCUGGCGCUGGCUGGGCAACAUUCCGAGGGGACCGUCCCCUCGGUAAUUGCGAAUGGGACCCA, for which the self-cleavage stood at 0.391.
For the variant GGCCGGCAUGGUCCCAGCCUCGUCGCUGGCGCCGGCUGGGCAACAUUCCGAGGGGACCGUCUCCUCGGUAAUGGCGAAUGGGACCCA, the self-cleavage was 0.0346.
Regarding GGCCGUCAUGGUCCCAGCCUCCUCGCUGGCGCCGGCUGGGCAACAUUCCUAGGGGACCGUCCCCUCGGUAAUGGCGAAUGGGACCCA, the self-cleavage was 0.475.
Regarding GGCCGGCAUGGUCCCAGCCUCCUCGCUGGCGCCGGCUGGGCAACAUUCCGAGGGGACCGUUCCCUUGGUAAUGGCGAAUGGGACCCA, the self-cleavage stood at 0.736.
In the case of GGCCGGCAUGGUCCCAGCCUCCUCGCUGGCGCCGGCUGGGCAACAUUCCGAGGGUACCGUCCCCUCGGUAAUGGCGAAUGGGACCCG, the self-cleavage amounted to 0.984.
Consider GGCCGACAUGGUCCCAGCCUCCUCGCUGGCGCCGGCUGGGCAACAUUCCGAGGGGACCGUCCCCUCCGUAAUGGCGAAUGGGACCCA, for which the self-cleavage is 0.643.
Under GGCCGGCAUGGUCCCAGCCUCCUCGCUGCCGCCGGCUGGGCAACAUUCCGAGGGGACCGUCCCCUCGGUAAUGGCGAAUGGGACCGA stands 0.133.
In the case of GGCCGUCAUUGUCCCAGCCUCCUCGCUGGCGCCGGCUGGGCAACAUUCCGAGGGGACCGUCCCCUCGGUAAUGGCGAAUGGGACCCA, the self-cleavage stood at 0.0791.
Under GGCCGGCAUGGUCCCAGCGUCCUCGCUGGCGCCGGCUGGGCAACAUUCCGAGGGGACCGUCCCCUCGGUAAUGGCGACUGGGACCCA stands 0.119; under GGCCGGCAUGCUCCCAGCCUCCUCGCUGGCGCCGGCUGGGCAACAUUCCGAGGGGACCGUCCCCUCGGGAAUGGCGAAUGGGACCCA, 0.516; under GGCCGGCAUGGUCCCAGCCUCCUCGCUGGCGCCGGCUGGGCAACAUUCCGAGGGGACCGUCCCCUCGGUAGUGGCGCAUGGGACCCA, 0.45.
Regarding GGCCGGCAUGGUCCCAGCCUCCUCGCUGGCGCCGGCUGGGCAACAUUCCGAGAGGACCAUCCCCUCGGUAAUGGCGAAUGGGACCCA, the self-cleavage was found to be 0.851.
As to GGUCGGCAUGGUCCCAGCCUCCUCGCUGGCGCCGGCUGGGCAACAUUCCGAGGGGACUGUCCCCUCGGUAAUGGCGAAUGGGACCCA, the self-cleavage was determined as 0.696.
As for GGCCGGCAUGGUCCCAGCCUCCUCGCUGGCGCCGGCUGGGUAACAAUCCGAGGGGACCGUCCCCUCGGUAAUGGCGAAUGGGACCCA, the self-cleavage worked out at 0.942.
As to GGCCGGCAUGUUCCCAGCCUCCUCGCUGGCGCCGGCUGGGCAACAUUCCGAGGGGACCGUCCCCUCGGUAAUGGCGAAUGGGGCCCA, the self-cleavage is 0.175.
Under GGCCGGCAUGGUCCCAGCCUCCUCGCUGGCGCCGGCUUGGCAACAUUCCGAGGGGACCGUCCCCUCGGUACUGGCGAAUGGGACCCA stands 0.225; under GGCCGGCAUGGUCCCAGCCUCCUCGUUGGCGCCGGCUGGGCAACAUUCCCAGGGGACCGUCCCCUCGGUAAUGGCGAAUGGGACCCA, 1.
GGCCGGCAUGGUCCCCGCCUCCUCGCUGGCGCCGGCUGGGCAACAUUCCGAUGGGACCGUCCCCUCGGUAAUGGCGAAUGGGACCCA: the self-cleavage was found to be 0.643.
Consider GGCCGGCAUGGUCCCAGCCUCCUCGCUGGCGUCGGCCGGGCAACAUUCCGAGGGGACCGUCCCCUCGGUAAUGGCGAAUGGGACCCA, for which the self-cleavage was 1.29.
Take GGACGGCAUGGUCCCAGCCUCCUCGCGGGCGCCGGCUGGGCAACAUUCCGAGGGGACCGUCCCCUCGGUAAUGGCGAAUGGGACCCA: the self-cleavage amounted to 0.322.
Consider GGCCGGCAUGGUCCCAGCCUCCUCGCUGGCGCCGGCUGGGCAACAUUCCGAGGGGACCGUCCCCUCGGUGGUGGCGAAUGGGACCCA, for which the self-cleavage is 0.918.
As to GGCCGGCAUGGUCUCAGCCUCCUCGCUGGCGCCAGCUGGGCAACAUUCCGAGGGGACCGUCCCCUCGGUAAUGGCGAAUGGGACCCA, the self-cleavage is 0.17.
For GGCCGGCAUGGUCCCAGCCUCAUCGCUGGCGCCGGUUGGGCAACAUUCCGAGGGGACCGUCCCCUCGGUAAUGGCGAAUGGGACCCA, the self-cleavage was 0.149.
For the variant GCCCGGCAUGGUCACAGCCUCCUCGCUGGCGCCGGCUGGGCAACAUUCCGAGGGGACCGUCCCCUCGGUAAUGGCGAAUGGGACCCA, the self-cleavage is 0.0615.
For the variant GGCCGGCAUGGUCCCAGCCUCCUCGCUGGCUCCGGCUGGGCAACAUUCCGAGGGGACCGUCCCCUCGGUAAUGGCGAAUGGGACGCA, the self-cleavage was 0.481.
On to GGUCGGCAUGGUCCCAGCCUCCUCGCUUGCGCCGGCUGGGCAACAUUCCGAGGGGACCGUCCCCUCGGUAAUGGCGAAUGGGACCCA, for which the self-cleavage came out at 0.0707.
With GGCCGGCAUGGUCCCAGCCUCCUCGCUGCCGCCGGCUGGGCAACAUUCCGAGGGGACCGUCCCCUCGGUAAUGGCGAAUGGAACCCA the figure was 0.117.
